B1: N-terminal FERM domain of moesin: N-terminal FERM domain of human moesin, amino acid residues 1-297 (SEQ ID NO:2), expressed in E. coli BL21(DE3) (protein)
chain: MPKTISVRVTTMDAELEFAIQPNTTGKQLFDQVVKTIGLREVWFFGLQYQDTKGFSTWLKLNKKVTAQDVRKESPLLFKFRAKFYPEDVSEELIQDITQRLFFLQVKEGILNDDIYCPPETAVLLASYAVQSKYGDFNKEVHKSGYLAGDKLLPQRVLEQHKLNKDQWEERIQVWHEEHRGMLREDAVLEYLKIAQDLEMYGVNYFSIKNKKGSELWLGVDALGLNIYEQNDRLTPKIGFPWSEIRNISFNDKKFVIKPIDKKAPDFVFYAPRLRINKRILALCMGNHELYMRRRKP
modifications: N-terminal FERM domain of human moesin protein

Assays:
Format in all cases: cell-based, human
platelets [1] = assay: Platelet aggregation assay (Born method, transparency)
Description: Plasma samples were collected from 6 healthy individuals and mixed with 3.8% sodium citrate in the ratio of 9:1 (v/v) to prevent solidification of the plasma. The mixed plasma samples were then centrifuged to obtain a portion of platelet-rich plasma (“PRP”) and another portion of platelet-poor plasma (“PPP”). The PRP was diluted with PPP to obtain a plasma sample having a platelet count of 5×10^8 per milliliter as a testing plasma sample for later use.
The testing plasma sample was incubated in the presence of an inhibitor of platelet activation as described in Table 3 below for several minutes, and thereafter an activator of platelet activation as described in Table 3 below was added therein and the plasma sample was further incubated for another several minutes to obtain a final mixture. The final mixture was detected for blood aggregation by measuring the transparency of the sample using TYXN-91 Intelligent Blood Agglutometer according to the Born methods. The transparency of PRP in the presence of either ADP or antibody against the N-terminal domain of moesin was also detected as positive controls. A negative control containing no inhibitor was also tested.
The testing results which was shown as platelet aggregation rate (“PAR”) and platelet aggregation inhibition rate (“PAIR”) are listed in Table 3 below.
PAR is calculated by, 1) subtracting PPP's transparency with the testing group's transparency, and 2) dividing the result of step 1) by PPP's transparency and then multiplying 100%. PAIR is calculated by, 1) subtracting the PRP group's PAR with the testing group's PAR, and 2) dividing the result of step 1) by the PRP group's PAR and then multiplying 100%.
The RGDS was prepared according to a conventional peptide synthesis in solid phase and used herein with a concentration of 10 ug/ml in 0.01M PBS. The moesin fragments and anti-moesin antibodies used in this experiment were prepared according to Example 1. The concentration regarding an inhibitor as described in Table 3 below is a final concentration of the inhibitor in the testing plasma sample, and the concentration regarding the activator of ADP and the antibody against N-terminal FERM domain of moesin also refers to a final concentration in the testing plasma sample.

platelets [2] = assay: Stimulation of platelet activation: CD62P and CD63 expression in plasma by flow cytometry; conditions: for CD62P FD (Mnx) / CD63 FD (Mnx): agent alone in plasma of 12 healthy individuals, final conc. ADP 5 μM, antibody 20 μg/ml, FERM domain 2 mM
Description: The expressions of CD62P and CD63 are associated with platelet activation. Therefore, these two proteins can be used as indicators to characterize the profile of platelet activation. This experiment was performed in vitro to assess stimulation of platelet activation in the presence of various agents by detecting the expression levels of CD62P and CD63 using CD62P monoclonal antibody and CD63 monoclonal antibody.
Plasma samples were collected from 12 healthy individuals, and cultured at room temperature in the presence of various agents as described in Table 1 below for several minutes (e.g. 5 mins). The culture conditions were selected so that the platelets can be fully activated within about 10 mins. After that, CD62P monoclonal antibody and CD63 monoclonal antibody labeled with fluorescein isothiocyanate (FITC) were used to detect the expressed CD62P and CD63 in the plasma samples, and the fluorescence density (“FD”) of the plasma samples was detected using flow cytometry of Beckman Coulter EPICS-XL. The expression levels of the CD62P and CD63 were represented by the average value of fluorescence density detected.
The agents being tested in this assay are listed in Table 1 below, including ADP which is known as an agent stimulating platelet activation (Group 1), the anti-moesin N-terminal domain antibody (Group 2) and the N-terminal FERM domain of moesin (Group 3) which were both prepared according to Example 1.
The concentration of an agent listed in Table 1 is a final concentration of the agent in the plasma sample. A plasma sample without any of the test agents was tested as a control group. The results are listed in Table 1 below and also illustrated in FIG. 6.

platelets [3] = assay: Inhibition of platelet activation induced by activators: CD62P and CD63 expression by flow cytometry; set-up: key to CD62P FD (Mnx) / CD63 FD (Mnx): mean fluorescence density by flow cytometry; conditions: for effect on platelet activation induced by ADP (in words): activator ADP; for effect on platelet activation induced by the antibody against the N-terminal FERM domain of moesin (in words): activator anti-moesin N-terminal domain antibody; for CD62P FD (Mnx) / CD63 FD (Mnx): inhibitor first, n = 12
Description: This experiment is performed to assess the blocking effect of various inhibitors (i.e. test agents) on the platelet activation induced by various different activators.
The plasma samples were collected from 12 healthy individuals, and cultured in the presence of an inhibitor as described in Table 2 below for several minutes (e.g. 5 mins), and thereafter an activator of platelet activation was added therein and the plasma samples were further cultured for another several minutes (e.g. 5 mins). The culture conditions were the same as Example 2. After that, CD62P monoclonal antibody and CD63 monoclonal antibody labeled with FITC were used to detect the expressed CD62P and CD63 in the plasma samples, and the fluorescence density of the plasma samples was detected using flow cytometry of Beckman Coulter EPICS-XL. The expression levels of the CD62P and CD63 were represented by the average value of fluorescence density detected. A control group using 0.01M PBS instead of any inhibitor was also tested.
The peptide RGDS is known as an inhibitor of platelet activation that inhibits platelet's activation by competing with platelet activator combined-1 (PAC-1) to bind to glycoprotein (GP) IIb/IIIa complex on the surface of platelets. The RGDS was prepared according to a conventional peptide synthesis in solid phase and used herein with a concentration of 10 mg/ml in 0.01 M PBS. The moesin fragments and anti-moesin antibodies used in this experiment were prepared according to Example 1. As used in this experiment, the anti-moesin N-terminal domain antibody has a concentration of 20 μg/ml in 0.01M PBS, the N-terminal FERM domain has a concentration of 2 mM in 0.01M PBS, and the anti-moesin C-terminal domain has a concentration of 20 μg/ml in 0.01M PBS. The ADP used herein has a concentration of 5 μM in 0.01M PBS. The results are listed in Table 2 below and also illustrated in FIG. 7.

[4] = activator ADP (5 μM), inhibitor at final concentration of Table 3, n = 6
[5] = activator Anti-moesin N-terminal domain antibody (2 μg/mL), n = 6
[6] = then activator ADP (50 μl, 5 μM)
[7] = then activator Anti-moesin N-terminal domain (50 μl, 20 μg/ml)

Row | Molecule | PAR (%) of PRP with the activator alone (platelets [1]; PRP positive control, no inhibitor, ADP 5 μM or antibody 2 μg/mL, n = 6) [%] | CD62P FD (Mnx) (platelets [2]) | CD63 FD (Mnx) (platelets [2]) | PAR (%) platelet aggregation rate (platelets [1]; [4]) [%] | PAIR platelet aggregation inhibition rate (platelets [1]; [5]) | PAR (%) platelet aggregation rate (platelets [1]; [5]) [%] | inhibition of platelet aggregation induced by the antibody against the N-terminal FERM domain of moesin (in words) (platelets [1]; activator anti-moesin N-terminal domain antibody) | effect on platelet activation induced by ADP (in words) (platelets [3]) | effect on platelet activation induced by the antibody against the N-terminal FERM domain of moesin (in words) (platelets [3]) | CD62P FD (Mnx) (platelets [3]; [6]) | CD63 FD (Mnx) (platelets [3]; [6]) | CD62P FD (Mnx) (platelets [3]; [7]) | CD63 FD (Mnx) (platelets [3]; [7]) | inhibition of platelet aggregation induced by ADP (in words) (platelets [1]; activator ADP) | PAIR platelet aggregation inhibition rate (platelets [1]; [4]) [%] | PAIR platelet aggregation inhibition rate (platelets [1]; activator Anti-moesin N-terminal domain antibody (2 μg/mL), n = 6, listed as N-terminal domain) [%] | stimulation of platelet activation (in words) (platelets [2]; agent alone, CD62P and CD63 expression vs control group)
1 | Nc1ncnc2c1ncn2[C@@H]1O[C@H](COP(=O)(O)OP(=O)(O)O)[C@@H](O)[C@H]1O [ADP, reference compound] | 45.62 | 12.88 | 11.31 | – | – | – | – | – | – | – | – | – | – | – | – | – | –
2 | RGDS [solid-phase synthesis, reference compound] | – | – | – | 11.12 | 9.77% | 55.55 | much less inhibiting effect | can substantially inhibit | no blocking effect | 7.04 | 5.61 | 17.98 | 20.13 | – | – | – | –
3 | B1 | – | 2.99 | 1.55 | 27.55 | approximately 90% | 6.03 | – | no significant effect | can significantly block | 11.38 | 7.23 | 5.79 | 6.30 | much less | 39.61 | 90.21 | does not stimulate platelet activation

Source: patent US9345765B2, “Diagnostic and therapeutic uses of moesin fragments” (SHANGHAI KEXIN BIOTECH CO., LTD., priority 2010, dated 2016)
